Source: patent publication US20230348614A1 (VISTERRA, published 2023)
Substitutions are numbered along the chain they refer to.

What was measured:
R155A = molecular target: T1, R155A (Homo sapiens, UniProt P18827); experiment: alanine scan: flow cytometry on HEK-293T cells expressing the mutant clone, 4320 Fab 0.50 ug/mL, normalised to WT CD138; Range %WT Binding 6; Normalized 4320 vs. BB4 39.8
T1 construct: clone of the alanine scanning library on HEK-293T cells; m17 with one substitution; also called CD138 R155A
T1 sequence (CD138 (SDC1), full length, point mutant, looked up): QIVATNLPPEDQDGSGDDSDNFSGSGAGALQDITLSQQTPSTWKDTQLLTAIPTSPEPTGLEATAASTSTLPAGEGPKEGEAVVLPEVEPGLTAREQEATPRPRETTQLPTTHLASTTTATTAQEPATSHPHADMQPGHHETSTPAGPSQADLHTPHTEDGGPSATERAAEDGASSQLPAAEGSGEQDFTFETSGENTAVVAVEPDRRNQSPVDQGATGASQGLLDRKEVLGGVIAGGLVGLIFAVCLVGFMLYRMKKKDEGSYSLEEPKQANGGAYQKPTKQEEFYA
Protocol: (§1) Serial dilutions of each MAb were tested for immunoreactivity against cells expressing target protein (WT) or vector alone. Validation of target expression and optimization of detection and binding of anti-CD138 antibodies both by flow cytometry was completed in replicate (N=4). The optimal screening concentration for each MAb was determined based on the raw signal values and signal-to-background calculations specifically optimized for each test article. Optimized parameters included the use of 10% goat serum as blocking reagent. Primary antibody staining was for 60 minutes at 25° C. Wash buffer include phosphate buffered saline (divalent metal ion free), pH 7.4. […] Secondary antibodies were diluted 1:400 and incubated for 30 minutes at 25° C.
(§2) Library screens of very-high-affinity mAbs can fail to yield critical residues for antibody binding due to deficiencies of such an assay to detect and differentiate critical vs. less critical binding based on affinity and quantification of cell binding. One common approach in the literature is the use of monovalent antibody derived fragments such as Fab usually weakens binding sufficiently to allow identification of critical residues for binding. […] Binding of each test Ab to each mutant clone in the alanine scanning library was determined, in duplicate, and likewise evaluated by flow cytometry.

S151A (Homo sapiens) = S151A (Homo sapiens) (UniProt P18827); experiment: alanine scan: flow cytometry on HEK-293T cells expressing the mutant clone, 4320 Fab 0.50 ug/mL, normalised to WT CD138; Range %WT Binding 6; Normalized 4320 vs. BB4 24.5
E111A = molecular target: T2, E111A (Homo sapiens, UniProt P18827); experiment: alanine scan: flow cytometry on HEK-293T cells expressing the mutant clone, 4320 Fab 0.50 ug/mL, normalised to WT CD138; Range %WT Binding 8; Normalized 4320 vs. BB4 10.4
T2 construct: clone of the alanine scanning library on HEK-293T cells; m17 with one substitution; also called CD138 E111A
T2 sequence (CD138 (SDC1), full length, point mutant, looked up): T1 sequence (CD138 (SDC1), full length, point mutant, looked up) with E89A, A133R
Protocol: as §1, §2

B1: Fab fragment of mAb 4320 (Fab, V domains shown)
VH: QVQLVQSGAEVKKPGASVKVSCKASGYSFSSYYMHWVRQAPGQGLEWMGTIHPSDSTTNYNQKFQGRVTMTVDTSTRTAYMELSSLRSEDTAVYYCANFVYWGQGTTVTVSS
VL: DIVMTQTPLSLSVTPGQPASISCKSSKSLLYKDGKTYLNWFLQKPGQSPQLLIYVVSTRASGVPDRFSGSGSGTDFTLKISRVEAEDVGVYYCQQLVEYPYTFGQGTKLEIKR
modifications: N-terminal Q1 observed as pyroglutamic acid (PCA) in the 138-2-5 complex
notes: In the crystal structures heavy chain residues 1-213 were traced; also called Fab4320
With B1 the “Mean %WT Binding” value (R155A) was 12.3 %WT, the Mean %WT Binding (S151A (Homo sapiens)) was 8.9 %WT and the “Mean %WT Binding” value (E111A) was 13 %WT.
